# Experiments:
# [1] = target: Arabidopsis SUMO1^ΔGG fused to CLuc (split-luciferase assay) (UniProt P55852); test: split-luciferase complementation assay in planta; details: Rep^sim NLuc + CLuc SUMO1^ΔGG; n = 12; parent: est. 0.29; read off a plot
# [2] = target: Arabidopsis SCE1 fused to CLuc (split-luciferase assay) (UniProt Q42551); test: split-luciferase complementation assay in planta; details: Rep^sim NLuc + CLuc SCE1; n = 12; parent: est. 0.36; read off a plot
# UniProt Q42551, sequence (Q42551 whole entry, the tested form may be a part): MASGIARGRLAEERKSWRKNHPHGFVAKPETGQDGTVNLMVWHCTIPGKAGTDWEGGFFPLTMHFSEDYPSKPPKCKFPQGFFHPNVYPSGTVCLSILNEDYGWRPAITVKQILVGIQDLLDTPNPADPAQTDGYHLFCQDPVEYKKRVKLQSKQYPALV
# UniProt P55852, sequence (P55852 1-91, stated change not applied): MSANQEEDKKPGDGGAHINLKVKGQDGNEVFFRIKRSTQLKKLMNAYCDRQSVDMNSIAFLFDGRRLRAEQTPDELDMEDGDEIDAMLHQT
substance,measurement,setting,value
Rep of TYLCV fused to NLuc (split-luciferase assay) I215A; V216A; I217A,response (fraction of total signal),[1],0.08
same,response (fraction of total signal),[2],0.075
